Assay [1] concerns the target AcrIF24 (P. aeruginosa prophage). The experiment in a line: SEC-SAXS. For orientation: Size exclusion chromatography separates by hydrodynamic size, large species first.
For assay [2] the target is unchanged. As to the kind of experiment: cryo-EM structure.

As usually defined, the stoichiometry N is a count of units in the complex or per binding partner.

Consider AcrIF24 (natural protein), for which the stoichiometry N in assay [1] and in assay [2] was 2 in each case.

Values taken from PMC9691602.
